# T1: recombinant human ST2 Fc chimera (ALX-201-367-C050, Enzo Life Science) (human, UniProt Q01638 19-328)
# T1 construct: bought; also called human IL-33 receptor protein; human IL-33 receptor (ST2)
# T1 sequence (looked up): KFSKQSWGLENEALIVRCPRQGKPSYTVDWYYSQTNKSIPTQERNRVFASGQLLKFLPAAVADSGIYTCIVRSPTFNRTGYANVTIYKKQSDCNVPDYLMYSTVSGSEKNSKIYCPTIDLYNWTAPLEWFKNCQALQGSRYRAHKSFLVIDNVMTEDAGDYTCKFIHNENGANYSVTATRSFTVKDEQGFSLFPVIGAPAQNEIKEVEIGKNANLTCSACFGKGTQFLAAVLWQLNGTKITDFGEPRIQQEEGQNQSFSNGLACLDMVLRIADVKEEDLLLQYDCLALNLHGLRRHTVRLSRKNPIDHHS
# Biological target: T1, recombinant human ST2 Fc chimera …
# Experiment: SPR (ProteOn), hIL-33 on chip, ST2 Fc chimera as analyte
# Source text: Each peptide was N-terminally biotinylated, and was immobilized as ligand onto a NeutrAvidin sensor chip of a surface plasmon resonance (SPR) system (ProteOn XPR36, available from Bio-Rad Laboratories, Inc.). […] The resulting protein (hIL-33) as a ligand was immobilized onto the SPR sensor chip. Each test antibody, the human IL-33 receptor protein (recombinant human ST2 Fc chimera) (ALX-201-367-C050, available from Enzo Life Science, Inc.), or buffer (0.05% Tween20/PBS) alone was then loaded as an analyte onto the sensor chip containing the ligand immobilized thereon (antibody concentration: […]; flow rate: 100 μl/min), to allow them to bind to the ligand. After washing, the amount of analyte (amount of antibody) bound to the ligand on the sensor chip was measured as RU value.
binder,measurement,value
"mature human IL-33 (residues 112 to 270) N-terminally linked with the Avitag sequence, biotinylated (ligand, not shown: small tags and cut ends, biotin on the AviTag sequence (biotin ligase reaction), also called hIL-33) SITGISPITEYLASLSTYNDQSITFALEDESYEIYVEDLKKDEKKDKVLLSYYESQHPSNESGDGVDGKMLMVTLSPTKDFWLHANNKEHSVELHKCEKPLPDQAFFVLHNMHSNCVSFECKTDPGVFIGVKDNHLALIKVDSSENLCTENILFKLSET",binding result,binds

# — patent publication US20240002495A1 (MITSUBISHI TANABE PHARMA, published 2024)
